Variants at the floor of the assay were thinned out.

The test system of one data set is biotinyl-Phe-oxazolone. The data set can be described thus: self-aminoacylation, catalytic enhancement (BFO) (fold over background); higher = more active; k-Seq, kA / k0A0; sequences stand for … in GGGAAUGGAUCCACAUCUACGAAUUC…UUCACUGCAGACUUGACGAAGCUG
Put shortly: (§1)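 Mutagenized RNA pools (0.43 μM; 21-nt variable region) were treated with 2–1250 μM of each biotinyl-aminoacyl-oxazolone. Conditions were 50 μL HEPES/NaCl/KCl/MgCl2/CaCl2 buffer, 5% acetonitrile, pH 6.9–7.0, room temperature, 90 minutes. Catalytic enhancement, the median kA relative to the uncatalyzed rate, was derived from streptavidin capture, qPCR and Illumina sequencing.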

The next data set relates to biotinyl-Met-oxazolone. The data set can be described thus: self-aminoacylation, catalytic enhancement (BMO) (fold over background); higher = more active; k-Seq, kA / k0A0; sequences stand for … in GGGAAUGGAUCCACAUCUACGAAUUC…UUCACUGCAGACUUGACGAAGCUG
Put shortly:
as §1

The next data set relates to biotinyl-Trp-oxazolone. The data set can be described thus: self-aminoacylation, catalytic enhancement (BWO) (fold over background); higher = more active; k-Seq, kA / k0A0; sequences stand for … in GGGAAUGGAUCCACAUCUACGAAUUC…UUCACUGCAGACUUGACGAAGCUG
The method, boiled down:
as §1

The test system of the next data set is biotinyl-Leu-oxazolone. The data set is described as follows: self-aminoacylation, catalytic enhancement (BLO) (fold over background); higher = more active; k-Seq, kA / k0A0; sequences stand for … in GGGAAUGGAUCCACAUCUACGAAUUC…UUCACUGCAGACUUGACGAAGCUG
The method, boiled down:
as §1

As for “AUUCACCUAGCUUAUCGGGUG [Fam2.2 aminoacylation ribozyme variant]”, the self-aminoacylation stood at 4.71 in the data set on biotinyl-Phe-oxazolone, 2.12 in the data set on biotinyl-Met-oxazolone and 2.2 in the data set with biotinyl-Trp-oxazolone.
Consider “AUUCCCCUGGUCAUCAAGUGA [Fam2.1 aminoacylation ribozyme variant]”, for which the self-aminoacylation stood at 3.87 in the data set on biotinyl-Phe-oxazolone, 2.36 in the data set on biotinyl-Met-oxazolone and 2.34 in the data set on biotinyl-Trp-oxazolone.
Turning to “ACCUUUGCUAAUAGUCGCAAG [Fam3.1 aminoacylation ribozyme variant]”, the self-aminoacylation in the data set on biotinyl-Phe-oxazolone came out at 2.02; with biotinyl-Leu-oxazolone it was 2.31; with biotinyl-Trp-oxazolone, 2.06.
Consider “AUUCAUCUAGCUCAUCGGGUG [Fam2.2 aminoacylation ribozyme variant]”, for which the results for the self-aminoacylation in the data set on biotinyl-Met-oxazolone and with biotinyl-Trp-oxazolone were 2.12 and 2.3, respectively.
Take “AUUCACAUAGGUCGUCGGGUG [Fam2.2 aminoacylation ribozyme variant]”: the results for the self-aminoacylation with biotinyl-Phe-oxazolone and in the data set on biotinyl-Leu-oxazolone were 7.92 and 2.07, respectively.
For the sequence “AAGUUAGCUAAAAGUCGCAAG [Fam3.1 aminoacylation ribozyme variant]”, the self-aminoacylation is 2.41 in the data set with biotinyl-Phe-oxazolone and 2.01 with biotinyl-Leu-oxazolone.
As to “AAGUUUGCUAAUAGUCGAAAA [Fam3.1 aminoacylation ribozyme variant]”, the self-aminoacylation in the data set with biotinyl-Met-oxazolone turned out to be 2.08.
For “CGACUUCAAGCAAUCGGUCUG [Fam1A.1 aminoacylation ribozyme variant]”, the self-aminoacylation in the data set with biotinyl-Phe-oxazolone stood at 26.6; in the data set with biotinyl-Leu-oxazolone it was 2.13; with biotinyl-Trp-oxazolone it was 20.1.
Consider “UAGUUUGCUAAUAGUCGCGAG [Fam3.1 aminoacylation ribozyme variant]”, for which the values for the self-aminoacylation in the data set on biotinyl-Phe-oxazolone, in the data set on biotinyl-Leu-oxazolone and with biotinyl-Trp-oxazolone were 2.58, 2.08 and 2.02, respectively.
Take “AUUCACCUAGUUCAUCGGGGG [Fam2.2 aminoacylation ribozyme variant]”: the self-aminoacylation with biotinyl-Phe-oxazolone is 6.17; in the data set on biotinyl-Leu-oxazolone it was 2.23.
In the case of “AUUCACUUAGGUCAUAGGGUG [Fam2.2 aminoacylation ribozyme variant]”, the self-aminoacylation worked out at 3.24 with biotinyl-Phe-oxazolone and 2.08 in the data set on biotinyl-Leu-oxazolone.
As to “CGACUUCAAACAAUCGGUCUG [Fam1A.1 aminoacylation ribozyme variant]”, the self-aminoacylation was determined as 102 in the data set with biotinyl-Phe-oxazolone, 2.66 with biotinyl-Leu-oxazolone and 44.4 with biotinyl-Trp-oxazolone.
“CCACUUCAAACAAUCGGUCUU [Fam1A.1 aminoacylation ribozyme variant]”: the self-aminoacylation in the data set on biotinyl-Phe-oxazolone was 40.9; in the data set on biotinyl-Leu-oxazolone, 2.11; in the data set on biotinyl-Trp-oxazolone, 25.2.
For “CACCUUCAAACAAUCGGUCUG [Fam1A.1 aminoacylation ribozyme variant]”, in that order: 98.1, 2.61 and 43.9.
Taken in the same sequence, the figures for “CAACUUCAAACAAUCGGUCUG [Fam1A.1 aminoacylation ribozyme variant]” were 97.7, 2.61 and 44.8.
Take “AUUACCCUGGUCGUCGAGCGA [Fam2.1 aminoacylation ribozyme variant]”: the self-aminoacylation stood at 3.35 with biotinyl-Phe-oxazolone and 2.17 in the data set on biotinyl-Leu-oxazolone.
Turning to “ACUACCCUGGUCAUCGAGAGA [Fam2.1 aminoacylation ribozyme variant]”, the self-aminoacylation with biotinyl-Met-oxazolone was found to be 2.02.
Regarding “AAGUUUGCCAAUAGUCGCAAA [Fam3.1 aminoacylation ribozyme variant]”, the self-aminoacylation came to 2.47 in the data set on biotinyl-Phe-oxazolone and 2.37 with biotinyl-Met-oxazolone.
As for “CAGUUUGCUAAUAGUCGCAUG [Fam3.1 aminoacylation ribozyme variant]”, the results for the self-aminoacylation in the data set on biotinyl-Phe-oxazolone, in the data set with biotinyl-Leu-oxazolone and in the data set with biotinyl-Trp-oxazolone were 2.84, 2.08 and 2.07, respectively.
For “CUUCUUCAAACAAUCGGUCUA [Fam1A.1 aminoacylation ribozyme variant]”, the values for the self-aminoacylation with biotinyl-Phe-oxazolone and in the data set with biotinyl-Trp-oxazolone were 11.4 and 4.8, respectively.
“CAACUUCAAACGAUCGGUCUG [Fam1A.1 aminoacylation ribozyme variant]”: the self-aminoacylation was determined as 2.25 with biotinyl-Phe-oxazolone and 2.65 with biotinyl-Trp-oxazolone.
As to “UAGUUUGUUAAUAGUCGCAAG [Fam3.1 aminoacylation ribozyme variant]”, the self-aminoacylation was determined as 3.23 in the data set with biotinyl-Phe-oxazolone and 2.05 with biotinyl-Leu-oxazolone.
As to “AAGUUUCCUAAUAGUCGCACG [Fam3.1 aminoacylation ribozyme variant]”, the self-aminoacylation is 2.96 in the data set on biotinyl-Phe-oxazolone and 2.23 with biotinyl-Trp-oxazolone.
For “UUUCUUCAAACAAUCGGUCUG [Fam1A.1 aminoacylation ribozyme variant]”, the self-aminoacylation came out at 7.67 with biotinyl-Phe-oxazolone and 5.16 in the data set with biotinyl-Trp-oxazolone.
Turning to “CUACUUCAAAUAAUCGGUUUG [Fam1A.1 aminoacylation ribozyme variant]”, the self-aminoacylation with biotinyl-Phe-oxazolone was found to be 16; with biotinyl-Trp-oxazolone, 8.58.
For the sequence “CCACACUCCAACCAAUCGGUC [Fam1B.1 aminoacylation ribozyme variant]”, the self-aminoacylation in the data set on biotinyl-Phe-oxazolone turned out to be 3.55; in the data set with biotinyl-Trp-oxazolone, 2.18.
In the case of “AUUACCAUGGUCAUCGAGGGA [Fam2.1 aminoacylation ribozyme variant]”, the self-aminoacylation with biotinyl-Phe-oxazolone was 2.21; in the data set on biotinyl-Trp-oxazolone it was 2.58.
“AAGUCUACUAAUAGUCGCAAG [Fam3.1 aminoacylation ribozyme variant]”: the self-aminoacylation with biotinyl-Phe-oxazolone turned out to be 3.17; in the data set with biotinyl-Trp-oxazolone, 2.11.
Turning to “CCACACUUCAACCGAUCGGUC [Fam1B.1 aminoacylation ribozyme variant]”, the self-aminoacylation in the data set with biotinyl-Phe-oxazolone is 3.75; with biotinyl-Trp-oxazolone, 5.96.
For the sequence “CUACUUCAAACAAUCGGUUUC [Fam1A.1 aminoacylation ribozyme variant]”, the results for the self-aminoacylation in the data set with biotinyl-Phe-oxazolone and in the data set on biotinyl-Trp-oxazolone were 4.72 and 2.18, respectively.
For the sequence “AAGUUUGCUAAUGGUCGCAAA [Fam3.1 aminoacylation ribozyme variant]”, the results for the self-aminoacylation in the data set on biotinyl-Phe-oxazolone and with biotinyl-Trp-oxazolone were 2.48 and 2.87, respectively.
In the case of “GCACACUUCAAGCAAUCGGUC [Fam1B.1 aminoacylation ribozyme variant]”, the self-aminoacylation with biotinyl-Phe-oxazolone was found to be 32.3; in the data set with biotinyl-Trp-oxazolone it was 19.8.
“CCCCACUUCAAUCAAUCGGUC [Fam1B.1 aminoacylation ribozyme variant]”: the self-aminoacylation in the data set on biotinyl-Phe-oxazolone worked out at 37.1; with biotinyl-Leu-oxazolone, 2.28; in the data set with biotinyl-Trp-oxazolone, 31.
Regarding “UUACUUCAAAUAAUCGGUCUG [Fam1A.1 aminoacylation ribozyme variant]”, the self-aminoacylation with biotinyl-Phe-oxazolone stood at 10.3; in the data set on biotinyl-Trp-oxazolone it was 7.5.
Turning to “UCACACUUCAAGGAAUCGGUC [Fam1B.1 aminoacylation ribozyme variant]”, the self-aminoacylation with biotinyl-Phe-oxazolone stood at 5.43; in the data set on biotinyl-Trp-oxazolone, 3.91.
As to “CCUCUCUUCAAGCAAUCGGUC [Fam1B.1 aminoacylation ribozyme variant]”, the self-aminoacylation in the data set with biotinyl-Phe-oxazolone came out at 36.3; in the data set with biotinyl-Trp-oxazolone, 20.
For “GCACAUUUCAAGCAAUCGGUC [Fam1B.1 aminoacylation ribozyme variant]”, the self-aminoacylation in the data set with biotinyl-Phe-oxazolone amounted to 3.69; with biotinyl-Trp-oxazolone it was 3.16.
On to “AAGUUGGCUAAUUGUCGCAAG [Fam3.1 aminoacylation ribozyme variant]”, for which the self-aminoacylation with biotinyl-Phe-oxazolone is 2.94; in the data set on biotinyl-Leu-oxazolone, 2.41; with biotinyl-Trp-oxazolone it was 2.71.
Take “GCACACUUCAAGCAAUCAGUC [Fam1B.1 aminoacylation ribozyme variant]”: the self-aminoacylation with biotinyl-Phe-oxazolone amounted to 9.69; in the data set on biotinyl-Trp-oxazolone, 4.94.
Turning to “CCACACCUCAAUCAAUCGGUC [Fam1B.1 aminoacylation ribozyme variant]”, the self-aminoacylation with biotinyl-Phe-oxazolone is 3.88; in the data set with biotinyl-Trp-oxazolone, 2.88.
On to “CCACGCCUCAAGCAAUCGGUC [Fam1B.1 aminoacylation ribozyme variant]”, for which the figures for the self-aminoacylation in the data set with biotinyl-Phe-oxazolone and in the data set on biotinyl-Trp-oxazolone were 10.4 and 6.73, respectively.
Taken in the same sequence, the figures for “CCCCACUUUAAGCAAUCGGUC [Fam1B.1 aminoacylation ribozyme variant]” were 2.4 and 2.1.
Taken in the same sequence, the figures for “CCCCACUUAAAGCAAUCGGUC [Fam1B.1 aminoacylation ribozyme variant]” were 2.09 and 2.05.
Consider “CCACACUUCAGCCAAUCGGUC [Fam1B.1 aminoacylation ribozyme variant]”, for which the results for the self-aminoacylation with biotinyl-Leu-oxazolone and with biotinyl-Trp-oxazolone were 2.27 and 2.11, respectively.
“CUAGUUCCAACAAUCGGUCUG [Fam1A.1 aminoacylation ribozyme variant]”: the self-aminoacylation in the data set on biotinyl-Phe-oxazolone turned out to be 9.79; with biotinyl-Trp-oxazolone, 9.72.
As for “CUACUUCAACCAAUCGGCCUG [Fam1A.1 aminoacylation ribozyme variant]”, the self-aminoacylation was 47.8 in the data set with biotinyl-Phe-oxazolone, 2.86 with biotinyl-Leu-oxazolone and 42.2 in the data set with biotinyl-Trp-oxazolone.
As to “AUUACCCUGGUCAUCGUGCGA [Fam2.1 aminoacylation ribozyme variant]”, the self-aminoacylation amounted to 9.74 with biotinyl-Phe-oxazolone, 2.14 in the data set with biotinyl-Leu-oxazolone and 2.28 in the data set with biotinyl-Trp-oxazolone.

The record behind these values is the supplement of paper PMC9233669.
